Measurements from paper PMC5720862 (Developmental cell, 2017).
Read-outs that look alike come from different tables or passages of the source.

T1: GST-DSK2A (Arabidopsis thaliana, UniProt Q9SII9 1-538)
T1 sequence (looked up): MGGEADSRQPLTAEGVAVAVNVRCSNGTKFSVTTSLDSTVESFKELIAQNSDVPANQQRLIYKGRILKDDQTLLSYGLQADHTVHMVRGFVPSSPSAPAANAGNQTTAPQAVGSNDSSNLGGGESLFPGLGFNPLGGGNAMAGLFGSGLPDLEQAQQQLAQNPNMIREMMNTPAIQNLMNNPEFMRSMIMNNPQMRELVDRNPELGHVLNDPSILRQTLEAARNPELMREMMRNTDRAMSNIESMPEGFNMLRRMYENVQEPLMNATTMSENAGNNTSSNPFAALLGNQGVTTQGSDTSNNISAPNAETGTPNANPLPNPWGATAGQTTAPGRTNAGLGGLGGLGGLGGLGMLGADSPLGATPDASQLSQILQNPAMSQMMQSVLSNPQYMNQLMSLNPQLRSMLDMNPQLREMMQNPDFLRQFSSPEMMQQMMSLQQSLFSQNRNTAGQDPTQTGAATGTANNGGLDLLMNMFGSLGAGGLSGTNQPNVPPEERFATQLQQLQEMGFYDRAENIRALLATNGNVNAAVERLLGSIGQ

T2: DSK2A-MBP (Arabidopsis thaliana, UniProt Q9SII9 1-538)
T2 sequence (looked up): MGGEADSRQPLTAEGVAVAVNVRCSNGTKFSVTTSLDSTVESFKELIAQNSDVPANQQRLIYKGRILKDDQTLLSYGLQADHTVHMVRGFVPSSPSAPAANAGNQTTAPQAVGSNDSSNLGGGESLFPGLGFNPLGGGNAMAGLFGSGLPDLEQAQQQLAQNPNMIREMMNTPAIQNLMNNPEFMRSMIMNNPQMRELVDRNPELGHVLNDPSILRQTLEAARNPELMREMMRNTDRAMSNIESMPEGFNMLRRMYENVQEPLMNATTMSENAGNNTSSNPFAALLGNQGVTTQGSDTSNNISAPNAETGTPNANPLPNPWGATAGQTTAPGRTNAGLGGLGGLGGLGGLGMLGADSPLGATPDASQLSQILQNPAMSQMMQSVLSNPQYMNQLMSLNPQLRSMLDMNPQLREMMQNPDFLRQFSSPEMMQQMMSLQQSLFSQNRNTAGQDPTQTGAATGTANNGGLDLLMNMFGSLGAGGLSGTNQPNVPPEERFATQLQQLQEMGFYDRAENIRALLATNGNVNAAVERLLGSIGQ

T3: DSK2A-HIS (Arabidopsis thaliana, UniProt Q9SII9 1-538)
T3 sequence (looked up): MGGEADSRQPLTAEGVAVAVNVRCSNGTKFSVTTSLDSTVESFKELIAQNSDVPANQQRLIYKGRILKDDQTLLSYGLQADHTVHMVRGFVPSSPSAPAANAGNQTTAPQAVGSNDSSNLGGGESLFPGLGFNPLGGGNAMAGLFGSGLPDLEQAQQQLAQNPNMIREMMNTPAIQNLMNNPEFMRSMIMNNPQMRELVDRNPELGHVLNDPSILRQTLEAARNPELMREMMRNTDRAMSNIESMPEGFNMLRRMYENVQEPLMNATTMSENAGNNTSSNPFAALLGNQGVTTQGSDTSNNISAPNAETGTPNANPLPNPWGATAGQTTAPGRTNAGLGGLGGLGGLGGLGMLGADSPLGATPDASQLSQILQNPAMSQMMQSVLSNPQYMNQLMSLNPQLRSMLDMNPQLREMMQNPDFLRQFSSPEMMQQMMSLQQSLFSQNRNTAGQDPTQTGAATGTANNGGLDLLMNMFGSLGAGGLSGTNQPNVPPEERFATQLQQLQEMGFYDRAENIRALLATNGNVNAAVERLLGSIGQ


Assays:
Assay in all cases: pull-down
[1] = target: T1, GST-DSK2A
[2] = target: T2, DSK2A-MBP
[3] = target: T3, DSK2A-HIS
[4] = target: T2, DSK2A-MBP; remark: listed apart in the source

binding result [2] | Binder | other results
binds | GST-ATG8f (natural protein, Arabidopsis thaliana, UniProt Q8VYK7 1-117, looked up) MAKSSFKQEHDLEKRRAEAARIREKYPDRIPVIVEKAEKSDIPTIDKKKYLVPADLTVGQFVYVIRKRIKLSAEKAIFIFVDNVLPPAGALMSSVYEEKKDDDGFLYVTYSGENTFG | 
binds | GST-ATG8i (natural protein, Arabidopsis thaliana, UniProt Q9LRP7 1-115, looked up) MKSFKEQYTLDERLAESREIIAKYPTRIPVIAEKYCKTDLPAIEKKKFLVPRDMSVGQFIYILSARLHLSPGKALFVFVNNTLPQTAALMDSVYESYKDDDGFVYMCYSSEKTFG | 

The next lines start with the binder.

Binder | binding result [2] | other results
SINAT2-MBP (enzyme, Arabidopsis thaliana, UniProt Q9M2P4 1-308, looked up) MAPGGSALKEVMESNSTGMDYEVKTAKVEVNNNKPTKPGSAGIGKYGIHSNNGVYELLECPVCTNLMYPPIHQCPNGHTLCSNCKLRVQNTCPTCRYELGNIRCLALEKVAESLEVPCRYQNLGCHDIFPYYSKLKHEQHCRFRPYTCPYAGSECSVTGDIPTLVVHLKDDHKVDMHDGCTFNHRYVKSNPHEVENATWMLTVFNCFGRQFCLHFEAFQLGMAPVYMAFLRFMGDENEAKKFSYSLEVGAHGRKLTWQGIPRSIRDSHRKVRDSQDGLIIPRNLALYFSGGDRQELKLRVTGRIWKEE |  | binding result [1]: binds
GST-ATG8a (natural protein, Arabidopsis thaliana, UniProt Q8LEM4 1-117, looked up) MAKSSFKISNPLEARMSESSRIREKYPDRIPVIVEKAGQSDVPDIDKKKYLVPADLTVGQFVYVVRKRIKLGAEKAIFVFVKNTLPPTAALMSAIYEEHKDEDGFLYMTYSGENTFG | binds | 
phosphorylated BES1-MBP (natural protein, Arabidopsis thaliana, UniProt Q9LN63 1-335, looked up, phosphorylated in vitro by BIN2-GST (sites not given)) MTSDGATSTSAAAAAAAMATRRKPSWRERENNRRRERRRRAVAAKIYTGLRAQGNYNLPKHCDNNEVLKALCSEAGWVVEEDGTTYRKGHKPLPGDMAGSSSRATPYSSHNQSPLSSTFDSPILSYQVSPSSSSFPSPSRVGDPHNISTIFPFLRNGGIPSSLPPLRISNSAPVTPPVSSPTSRNPKPLPTWESFTKQSMSMAAKQSMTSLNYPFYAVSAPASPTHHRQFHAPATIPECDESDSSTVDSGHWISFQKFAQQQPFSASMVPTSPTFNLVKPAPQQLSPNTAAIQEIGQSSEFKFENSQVKPWEGERIHDVAMEDLELTLGNGKAHS |  | binding result [3]: binds
GST-ATG8e (natural protein, Arabidopsis thaliana, UniProt Q8S926 1-118, looked up) MNKGSIFKMDNDFEKRKAEAGRIREKYPDRIPVIVEKAEKSEVPNIDKKKYLVPSDLTVGQFVYVIRKRIKLSAEKAIFIFVDNVLPPTGELMSSVYEDKKDEDGFLYITYSGENTFG | binds | 
BIN2, recombinant, of the in vitro pull-down with DSK2 (enzyme, Arabidopsis thaliana, UniProt Q39011 1-380, looked up) MADDKEMPAAVVDGHDQVTGHIISTTIGGKNGEPKQTISYMAERVVGTGSFGIVFQAKCLETGETVAIKKVLQDRRYKNRELQLMRVMDHPNVVCLKHCFFSTTSKDELFLNLVMEYVPESLYRVLKHYSSANQRMPLVYVKLYMYQIFRGLAYIHNVAGVCHRDLKPQNLLVDPLTHQVKICDFGSAKQLVKGEANISYICSRFYRAPELIFGATEYTTSIDIWSAGCVLAELLLGQPLFPGENAVDQLVEIIKVLGTPTREEIRCMNPHYTDFRFPQIKAHPWHKIFHKRMPPEAIDFASRLLQYSPSLRCTALEACAHPFFDELREPNARLPNGRPFPPLFNFKQEVAGSSPELVNKLIPDHIKRQLGLSFLNQSGT |  | binding result [4]: binds
